Target: plasma kallikrein (human) (UniProt P03952)
Assay: cell-based or functional assay

Chain of plasma kallikrein (human) (P03952 20-638 limits assumed): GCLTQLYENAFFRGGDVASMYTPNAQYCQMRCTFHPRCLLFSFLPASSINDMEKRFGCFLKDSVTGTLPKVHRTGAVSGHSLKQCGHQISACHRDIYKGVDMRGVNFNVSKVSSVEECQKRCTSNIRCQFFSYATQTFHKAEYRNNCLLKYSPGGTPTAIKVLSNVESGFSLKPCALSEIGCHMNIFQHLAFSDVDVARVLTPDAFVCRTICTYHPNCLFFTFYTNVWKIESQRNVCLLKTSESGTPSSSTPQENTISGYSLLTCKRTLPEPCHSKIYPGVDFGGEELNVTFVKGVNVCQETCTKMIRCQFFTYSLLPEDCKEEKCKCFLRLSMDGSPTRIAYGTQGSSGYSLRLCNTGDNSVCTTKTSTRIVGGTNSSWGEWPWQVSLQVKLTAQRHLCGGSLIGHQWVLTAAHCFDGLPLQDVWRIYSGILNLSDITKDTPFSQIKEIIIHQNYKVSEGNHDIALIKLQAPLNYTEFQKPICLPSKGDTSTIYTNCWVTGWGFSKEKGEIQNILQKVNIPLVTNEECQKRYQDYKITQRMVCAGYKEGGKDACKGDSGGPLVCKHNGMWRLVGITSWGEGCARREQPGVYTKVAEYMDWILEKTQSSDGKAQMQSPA

B1: lanadelumab (antibody, V domains shown)
VH: EVQLLESGGGLVQPGGSLRLSCAASGFTFSHYIMMWVRQAPGKGLEWVSGIYSSGGITVYADSVKGRFTISRDNSKNTLYLQMNSLRAEDTAVYYCAYRRIGVPRRDEFDIWGQGTMVTVSS
VL: DIQMTQSPSTLSASVGDRVTITCRASQSISSWLAWYQQKPGKAPKLLIYKASTLESGVPSRFSGSGSGTEFTLTISSLQPDDFATYYCQQYNTYWTFGQGTKVEI
Binder B1 has an IC50 for lanadelumab inhibition of 2-chain HMWK generation (FXIIa-activated citrated plasma, Western blot and sandwich ELISA) of 212 nM.
